Results on 4 molecules are retold here after patent US7521047 (GPC BIOTECH, dated 2009).

Experiment [1] concerns the target T1, human MHC class II DR protein (DRA*0101/DRB1*0401), purified from PRIESS cells (human, UniProt P01903 26-254; P01911 30-266, limits assumed).
T1 construct: mature; also called HLA-DR protein; MHCII
T1 MHC II alpha: not shown
T1 MHC II beta: not shown
Kind of experiment: SPR (BIAcore), scFv, chip density 500 RU MHCII.

In experiment [2] the target is T2, chimeric 0401-IE class II molecule on cells of transgenic mice (human/murine chimera). Kind of experiment: cell-based or functional assay.
Experiment [3] has as its target T1, human MHC class II DR protein …. Put plainly: SPR (BIAcore), 3 preparations on 3 chips (500, 4000, 3000 RU).
In experiment [4] the target is HLA-DR on MHH-CALL-4 cells (human). Put plainly: cell-based or functional assay.
Experiment [5] addresses T1, human MHC class II DR protein …. Put plainly: ELISA, coated antigen, Fab 100 ng/well, read at 370 nm. The protocol:
After washing in PBS the anti-human IgG F(ab')_2-peroxidase-conjugate at a 1:10,000 dilution in TBS (supplemented with 5% w/v non-fat drymilk/0.05% v/v Tween 20) was added to each well for 1 h. Final washes were carried out in PBS followed the addition the substrate POD (Roche).

For experiment [6] the target is unchanged. Put plainly: SPR (BIAcore), MHCII on CM5 chip.
The target in experiment [7] is HLA-DR on MHH-CALL-4 cells (human). Kind of experiment: cell-based or functional assay. This is another data set of the same source.
Experiment [8] has as its target HLA-DR on MN-60 cells (human). Kind of experiment: cell-based or functional assay.
Experiment [9] addresses HLA-DR on L1236 cells (human). Put plainly: cell-based or functional assay.
Experiment [10] has as its target HLA-DR on MHH-PREB-1 cells (human). Kind of experiment: cell-based or functional assay.
The target of experiment [11] is HLA-DR on NALM-1 cells (human). Put plainly: cell-based or functional assay.
In experiment [12] the target is HLA-DR on DOHH-2 cells (human). Put plainly: cell-based or functional assay.
Experiment [13] concerns the target HLA-DR on BJAB cells (human). Put plainly: cell-based or functional assay.
The target in experiment [14] is HLA-DR on KARPAS-422 cells (human). Put plainly: cell-based or functional assay.
Experiment [15] concerns the target HLA-DR on EOL-1 cells (human). Kind of experiment: cell-based or functional assay.
The target in experiment [16] is HLA-DR on BONNA-12 cells (human). Kind of experiment: cell-based or functional assay.
Experiment [17] has as its target HLA-DR on L-428 cells (human). Put plainly: cell-based or functional assay.
In experiment [18] the target is HLA-DR on KM-H2 cells (human). Kind of experiment: cell-based or functional assay.
The target in experiment [19] is HLA-DR on RAJI cells (human). Kind of experiment: cell-based or functional assay.
In experiment [20] the target is HLA-DR on SR-786 cells (human). Put plainly: cell-based or functional assay.
The target in experiment [21] is T3, HLA-DR (DRA*0101/DRB1*0401) on PRIESS cells (human, UniProt P01903 26-254; P01911 30-266).
T3 MHC II alpha: not shown
T3 MHC II beta: not shown
Put plainly: cell-based or functional assay.

Experiment [22] deals with HLA-DR on L-363 cells (human). Kind of experiment: cell-based or functional assay.
Experiment [23] addresses HLA-DR on GRANTA-519 cells (human). Put plainly: cell-based or functional assay.
The target of experiment [24] is HLA-DR on KARPAS-299 cells (human). Kind of experiment: cell-based or functional assay.
The target in experiment [25] is HLA-DR on RPMI-8226 cells (human). Kind of experiment: cell-based or functional assay.
The target in experiment [26] is HLA-DR on HDLM-2 cells (human). Put plainly: cell-based or functional assay.
Experiment [27] deals with HLA-DR on ARH-77 cells (human). Put plainly: cell-based or functional assay.
The target in experiment [28] is HLA-DR on HD-MY-Z cells (human). Put plainly: cell-based or functional assay.
Experiment [29] concerns the target HLA-DR on LP-1 cells (human). Put plainly: cell-based or functional assay.
Experiment [30] addresses HLA-DR on HC-1 cells (human). Put plainly: cell-based or functional assay.
The target in experiment [31] is T4, BSA (bovine, UniProt P02769 25-607).
T4 construct: negative control antigen; also called bovine serum albumine
Put plainly: ELISA, purified coated protein, OD at 370 nm minus background.

The target of experiment [32] is T1, human MHC class II DR protein …. Put plainly: BiaCore, IgG4. As to the method:
The affinities for anti-HLA antibody fragments of the invention were measured as follows. All measurements were conducted in HBS buffer (20 mM HEPES, 150 mM NaCl, pH 7.4) at a flow rate of 20 µl/min at 25° C. on a BIAcore3000 instrument (Biacore AB, Sweden). MHC class II DR protein (prepared as example 1) was diluted in 100 mM sodium acetate pH 4.5 to a concentration of […], and coupled to a CM5 chip (Biacore AB) using standard EDC-NHS coupling chemistry with subsequent ethanolamine treatment as manufacturers directions. The coating density of MHCII was adjusted to between 500 and 4000 RU. Affinities were measured by injection of 5 different concentrations of the different antibodies and using the standard software of the Biacore instrument. Regeneration of the coupled surface was achieved using 10 mM glycine pH 2.3 and 7.5 mM NaOH.

For experiment [33] the target is unchanged. Put plainly: SPR (BIAcore), IgG4 over MHCII on CM5 chip.
The target in experiment [34] is T2, chimeric 0401-IE class II molecule on …. Put plainly: cell-based or functional assay. This is another data set of the same source.
Experiment [35] concerns the target T3, HLA-DR (DRA*0101/DRB1*0401) on PRIESS …. Kind of experiment: cell-based or functional assay.

T4 sequence (P02769 25-607 limits assumed): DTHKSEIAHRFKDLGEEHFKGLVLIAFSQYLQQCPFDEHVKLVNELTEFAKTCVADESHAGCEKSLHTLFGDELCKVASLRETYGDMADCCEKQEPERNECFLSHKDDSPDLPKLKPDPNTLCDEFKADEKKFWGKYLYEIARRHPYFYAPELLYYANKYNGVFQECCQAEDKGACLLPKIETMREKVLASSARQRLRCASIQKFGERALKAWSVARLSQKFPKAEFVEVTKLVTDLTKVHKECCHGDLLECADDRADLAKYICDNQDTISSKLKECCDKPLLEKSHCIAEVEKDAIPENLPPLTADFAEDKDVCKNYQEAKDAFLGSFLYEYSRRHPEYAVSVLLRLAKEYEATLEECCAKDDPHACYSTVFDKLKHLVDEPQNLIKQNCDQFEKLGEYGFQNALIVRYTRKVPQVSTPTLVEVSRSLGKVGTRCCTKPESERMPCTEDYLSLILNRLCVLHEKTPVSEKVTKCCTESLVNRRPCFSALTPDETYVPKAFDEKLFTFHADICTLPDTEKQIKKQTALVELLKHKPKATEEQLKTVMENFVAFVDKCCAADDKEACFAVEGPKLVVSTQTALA

B1: MS-GPC-1 scFv (scFv)
chain: EVQLKESGPALVKPTQTLTLTCTFSGFSLSTSGVGVGWIRQPPGKALEWLALIDWDDDKYYSTSLKTRLTISKDTSKNQVVLTMTNMDPVDTATYYCARQYGHRGGFDHWGQGTLVTVSSAGGGSGGGGSGGGGSGGGGSDIVLTQPPSVSGAPGQRVTISCSGSSSNIGSNYVSWYQQLPGTAPKLLIYDNNQRPSGVPDRFSGSKSGTSASLAITGLQSEDEADYYCQSYDFNESVFGGGTKLTVLG
As to B1, in experiment [1], binding was put at a Kd of 1500 nM, the koff came out at 0.061 s⁻¹ and the kon worked out at 41300 M⁻¹ s⁻¹.

B2: MS-GPC-8-6 Fab (Fab, V domains shown)
VH: QVQLKESGPALVKPTQTLTLTCTFSGFSLSTSGVGVGWIRQPPGKALEWLALIDWDDDKYYSTSLKTRLTISKDTSKNQVVLTMTNMDPVDTATYYCARSPRYRGAFDYWGQGTLVTVSS
VL: DIVLTQPPSVSGAPGQRVTISCSGSSSNIGSNYVSWYQQLPGTAPKLLIYDNNQRPSGVPDRFSGSKSGTSASLAITGLQSEDEADYYCQSYDYDHYVFGGGTKLTVLG
notes: Fab: VH-CH1 with FLAG tag and STREP tag II, VL-CL; VH residue 1 is Q in Fab
Take B2: in [2], the “IC50 of inhibition of IL-2 secretion from T-Hyb 1 cells” value (from here on “IC50 of inhibition of IL-2 secretion”) is 20 nM (half the concentration of the Fab) and the “Maximum inhibition(%) of IL-2 secretion” value came to 100%. Moreover, in experiment [3], the Kd is 58.6 nM, the dissociation rate constant (koff) is 0.0055 s⁻¹ and the kon worked out at 96000 M⁻¹ s⁻¹. Also, the “maximum capacity to kill MHH-Call 4 cells” value in experiment [4] came out at 76%. In addition, the ELISA signal in experiment [5] was found to be 1.31. In addition, in experiment [6], the equilibrium dissociation constant (Kd) turned out to be 58.6 nM, the dissociation rate constant (koff) is 0.00548 s⁻¹ and the kon was found to be 96000 M⁻¹ s⁻¹.

B3: MS-GPC-8-6-13 IgG4 (antibody, V domains shown)
VH: QVQLKESGPALVKPTQTLTLTCTFSGFSLSTSGVGVGWIRQPPGKALEWLALIDWDDDKYYSTSLKTRLTISKDTSKNQVVLTMTNMDPVDTATYYCARSPRYRGAFDYWGQGTLVTVSS
VL: DIVLTQPPSVSGAPGQRVTISCSGSESNIGANYVTWYQQLPGTAPKLLIYDNNQRPSGVPDRFSGSKSGTSASLAITGLQSEDEADYYCQSYDYDHYVFGGGTKLTVLG
notes: human IgG4 (constant region EMBL K01316) with lambda constant region (EMBL M18645), from CHO-K1 cells; also called 305D3; IgG form of MS-GPC-8-6-13
Turning to B3, the “% Killing by mAb, 50 nM, 4 h” value in [7] came to 43%; in experiment [8], 67%; in experiment [9], 66%; in experiment [10], 11%; in [11], 65%; in [12] it was 53%. Further, the “% Killing by mAb, 50 nM, 4 h” value in [13] was found to be 64%; in experiment [14] it was 71%; in experiment [15] it was 53%; in [16], 86%; in [17], 92%; in experiment [18], 87%. Besides, the “% Killing by mAb, 50 nM, 4 h” value in experiment [19] worked out at 83%; in experiment [20], 26%; in experiment [21] it was 74%; in experiment [22] it was 19%; in experiment [23] it was 73%; in experiment [24], 76%. The “% Killing by mAb, 50 nM, 4 h” value is 19% in experiment [25]; 90% in experiment [26]; 87% in experiment [27]; 72% in [28]; 73% in experiment [29]; 93% in experiment [30]. In experiment [2], the “IC50 of inhibition of IL-2 secretion” value came to 0.42 nM. The “Maximum inhibition(%) of IL-2 secretion” value in [2] worked out at 100%. In [31], the binding result was “no binding”. Besides, the Kd in [32] and in experiment [33] was 0.5 nM throughout. The off-rate constant (koff) in experiment [32] was determined as 3.3e-05 s⁻¹; in experiment [33], 3e-05 s⁻¹. In addition, the results for the kon in experiment [32] and in experiment [33] were 71000 M⁻¹ s⁻¹ and 70000 M⁻¹ s⁻¹, respectively.

B4: MS-GPC-8-10-57 IgG4 (antibody, V domains shown)
VH: QVQLKESGPALVKPTQTLTLTCTFSGFSLSTSGVGVGWIRQPPGKALEWLALIDWDDDKYYSTSLKTRLTISKDTSKNQVVLTMTNMDPVDTATYYCARSPRYRGAFDYWGQGTLVTVSS
VL: DIVLTQPPSVSGAPGQRVTISCSGSESNIGNNYVQWYQQLPGTAPKLLIYDNNQRPSGVPDRFSGSKSGTSASLAITGLQSEDEADYYCQSYDLIRHVFGGGTKLTVLG
notes: also called 1C7277; IgG form of MS-GPC-8-10-57
On to B4, for which the “% Killing by mAb, 50 nM, 4 h” value in experiment [7] came out at 46%; in [8] it was 66%; in experiment [9], 66%; in experiment [10], 8%; in experiment [11], 78%; in experiment [12], 60%. For the same molecule, the “% Killing by mAb, 50 nM, 4 h” value worked out at 67% in experiment [13]; 68% in experiment [14]; 49% in [15]; 91% in [16]; 91% in [17]; 88% in experiment [18]. In addition, the “% Killing by mAb, 50 nM, 4 h” value in experiment [19] stood at 86%; in experiment [20] it was 44%; in experiment [21], 93%; in experiment [22], 24%; in [23], 78%; in experiment [24], 79%. The “% Killing by mAb, 50 nM, 4 h” value in experiment [25] came to 26%; in experiment [26] it was 84%; in experiment [27], 88%; in [28], 57%; in experiment [29] it was 70%; in experiment [30], 86%. Besides, the “IC50 of inhibition of IL-2 secretion” value in experiment [2] was determined as 0.31 nM. Further, in experiment [2], the “Maximum inhibition(%) of IL-2 secretion” value came to 100%. Also, the binding result in experiment [31] is “no binding”. The “IC50 value for inhibition of T cell proliferation” value in experiment [34] is 11 nM. The Kd stood at 0.3 nM in experiment [32] and 0.6 nM in experiment [33]. Further, the koff in experiment [32] was 0.00031 s⁻¹; in experiment [33], 4e-05 s⁻¹. The “EC50 of cell killing, IgG4” value in experiment [35] was determined as 1.1 nM. In experiment [33], this molecule showed a kon of 70000 M⁻¹ s⁻¹.
